Data on one molecule can be found in patent publication US20150322149A1 (Hoffmann-La Roche, published 2015).

The target in experiment [1] is T1, Abeta(1-40), fibrillar, immobilized (UniProt P05067 672-711).
T1 construct: domain: Abeta(1-40); Numbers 1-40 count on the Abeta peptide, not on the APP precursor; also called Abeta fibrils; fibrillar Abeta
Description: ELISA on coated fibrillar Abeta(1-40). How it is done: Functionality of mAb31 was confirmed by ELISA. Briefly, Abeta(1-40) was coated at 7 μg/mL in PBS onto Maxisorp plates for 3 days at 37° C. to produce fibrillar Abeta, then dried for 3 h at RT. The plate was blocked with 1% Crotein C and 0.1% RSA in PBS (blocking buffer) for 1 h at RT, then washed once with wash buffer. mAb31 constructs were added at concentrations up to 100 nM in blocking buffer and incubated at 4° C. overnight. After 4 wash steps, constructs were detected as indicated above.
Background: ELISA stands for enzyme-linked immunosorbent assay.

Experiment [2] addresses T2, recombinant mouse transferrin receptor (mTfR), extracellular domain (mouse, UniProt Q62351 89-763).
T2 construct: extracellular domain; Bought protein; also called murine Transferrin receptor 1
The experiment is described as follows: indirect ELISA on coated recombinant mTfR extracellular domain. As to the method:
Binding of mAb31-8D3 constructs to mouse transferrin receptor (mTfR) was assessed by indirect ELISA. To this end, recombinant mTfR (extracellular domain; Sino Biological) was coated to Maxisorb microtiter plate (Nunc) at 1 μg/mL in PBS at 4° C. overnight. After blocking in 1% Cro-tein-C/PBS (blocking buffer; Roche) for 1 h at RT and 4 washes with 0.1% Tween-20/PBS (wash buffer), mAb31-8D3 constructs were added to the wells at concentrations between 0.01 and 150 nM in blocking buffer and incubated for 1 h at RT. After 4 wash steps, constructs were detected by addition of anti-human-IgG-HRP (Jackson Immunoresearch) at 1:10,000 dilution in blocking buffer […], followed by 6 washes and incubation in TMB (Sigma). Absorbance was read out at 450 nm after stopping color development with 1 N HCl.

T2 sequence (Q62351 89-763): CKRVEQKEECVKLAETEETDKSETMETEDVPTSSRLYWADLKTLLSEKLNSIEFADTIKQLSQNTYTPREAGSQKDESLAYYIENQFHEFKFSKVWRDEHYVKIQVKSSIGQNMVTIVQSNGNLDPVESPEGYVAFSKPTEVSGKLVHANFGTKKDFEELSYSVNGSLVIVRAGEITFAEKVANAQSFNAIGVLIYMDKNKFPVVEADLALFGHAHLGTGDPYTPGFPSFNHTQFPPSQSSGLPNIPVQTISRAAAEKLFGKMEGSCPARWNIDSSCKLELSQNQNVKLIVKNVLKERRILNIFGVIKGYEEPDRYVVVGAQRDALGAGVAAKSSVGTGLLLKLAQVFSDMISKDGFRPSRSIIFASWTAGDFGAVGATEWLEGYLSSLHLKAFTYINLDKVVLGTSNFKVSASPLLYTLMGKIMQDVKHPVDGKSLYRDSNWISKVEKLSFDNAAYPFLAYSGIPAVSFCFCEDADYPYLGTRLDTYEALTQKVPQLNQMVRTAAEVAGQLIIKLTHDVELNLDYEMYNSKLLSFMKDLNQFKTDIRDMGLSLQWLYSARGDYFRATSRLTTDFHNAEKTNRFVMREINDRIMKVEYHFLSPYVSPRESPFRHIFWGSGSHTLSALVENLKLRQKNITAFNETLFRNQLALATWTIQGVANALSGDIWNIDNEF
T1 sequence (P05067 672-711 limits assumed): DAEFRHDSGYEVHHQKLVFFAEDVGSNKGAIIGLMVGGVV

B1: mAb31 (human monoclonal antibody recognizing Abeta; INN Gantenerumab) (antibody, V domains shown)
VH: QVELVESGGGLVQPGGSLRLSCAASGFTFSSYAMSWVRQAPGKGLEWVSAINASGTRTYYADSVKGRFTISRDNSKNTLYLQMNSLRAEDTAVYYCARGKGNTHKPYGYVRYFDVWGQGTLVTVSS
VL: DIVLTQSPATLSLSPGERATLSCRASQSVSSSYLAWYQQKPGQAPRLLIYGASSRATGVPARFSGSGSGTDFTLTISSLEPEDFATYYCLQIYNMPITFGQGTKVEIKR
notes: also called anti-Aβ monoclonal antibody mAb31
Turning to B1, the binding result in experiment [1] is “binds”; in experiment [2] it was “no binding (tested: 0.01 to 150 nM)”.
